Measurements: patent EP3831849A1 (LamKap Bio beta AG, dated 2021)
Where a chain is given by its changes, count along the chain named.

T1: human CEACAM5 expressed on MKN-45 wt cells (human, UniProt P06731 35-702)
T1 sequence: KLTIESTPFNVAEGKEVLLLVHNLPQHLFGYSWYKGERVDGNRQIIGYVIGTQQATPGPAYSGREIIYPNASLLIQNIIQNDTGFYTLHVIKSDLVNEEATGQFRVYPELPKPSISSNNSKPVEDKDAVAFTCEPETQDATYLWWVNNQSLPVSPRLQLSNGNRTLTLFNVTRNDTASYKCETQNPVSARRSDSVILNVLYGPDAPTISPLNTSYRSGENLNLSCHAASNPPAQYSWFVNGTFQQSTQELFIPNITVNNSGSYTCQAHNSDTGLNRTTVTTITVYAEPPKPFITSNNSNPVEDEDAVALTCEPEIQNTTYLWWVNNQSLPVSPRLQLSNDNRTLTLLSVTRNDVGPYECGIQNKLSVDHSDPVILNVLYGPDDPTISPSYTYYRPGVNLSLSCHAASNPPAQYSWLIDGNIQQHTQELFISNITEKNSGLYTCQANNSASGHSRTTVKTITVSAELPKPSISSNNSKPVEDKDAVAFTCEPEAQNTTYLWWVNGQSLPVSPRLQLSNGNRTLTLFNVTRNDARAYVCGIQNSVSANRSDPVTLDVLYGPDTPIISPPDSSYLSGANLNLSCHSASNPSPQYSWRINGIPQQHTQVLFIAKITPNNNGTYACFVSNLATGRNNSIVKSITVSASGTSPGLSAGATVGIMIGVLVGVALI

T2: biotinylated recombinant human CEACAM5 (human, UniProt P06731 35-685, biotin on the C-terminal Avitag)
T2 construct: also called CD66e; not shown: C-terminal Avitag plus hexa-histidine tag, human Fc or mouse Fc
T2 sequence: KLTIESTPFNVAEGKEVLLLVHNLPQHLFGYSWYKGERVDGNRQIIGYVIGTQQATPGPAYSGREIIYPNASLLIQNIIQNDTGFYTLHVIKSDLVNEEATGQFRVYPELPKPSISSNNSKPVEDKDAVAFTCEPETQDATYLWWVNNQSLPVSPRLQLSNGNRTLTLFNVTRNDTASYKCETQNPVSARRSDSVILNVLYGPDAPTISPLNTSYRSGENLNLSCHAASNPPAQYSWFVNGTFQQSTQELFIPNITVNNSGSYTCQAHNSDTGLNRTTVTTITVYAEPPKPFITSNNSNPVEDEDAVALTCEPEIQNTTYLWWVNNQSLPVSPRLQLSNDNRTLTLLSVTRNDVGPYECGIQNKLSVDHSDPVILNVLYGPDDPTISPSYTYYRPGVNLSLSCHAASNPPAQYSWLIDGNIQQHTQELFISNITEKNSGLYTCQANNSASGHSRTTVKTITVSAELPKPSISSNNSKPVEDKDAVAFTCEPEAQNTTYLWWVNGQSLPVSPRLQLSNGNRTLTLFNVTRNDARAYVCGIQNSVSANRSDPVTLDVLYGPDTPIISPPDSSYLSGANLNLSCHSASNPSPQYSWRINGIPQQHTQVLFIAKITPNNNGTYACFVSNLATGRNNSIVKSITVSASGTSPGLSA

B1: K2AC54 (bispecific antibody, human IgG1, kappa, lambda)
heavy: not shown
light 1: QSVLTQPPSVSGAPGQRVTISCTGSSSNIHDVGYVHWYQQLPGTAPKLLIYGASGRPSGVPDRFSGSKSGTSASLAITGLQAEDEADYYCQSYDTRQVVPTPVFGGGTKLTVLGQPKAAPSVTLFPPSSEELQANKATLVCLISDFYPGAVTVAWKADSSPVKAGVETTTPSKQSNNKYAASSYLSLTPEQWKSHRSYSCQVTHEGSTVEKTVAPTECS
light 2: not shown
notes: 6 is full length
B2: K2AC56 (bispecific antibody, human IgG1, kappa, lambda)
heavy: not shown
light 1: B1 light 1 with H30I, D31N, V32N, G33S, G52A, A53P, G55N, R96T, Q97G, V99M
light 2: not shown
notes: 6 is full length
B3: K2AC52 (bispecific antibody, human IgG1, kappa, lambda)
heavy: not shown
light 1: B1 light 1 with R96K, Q97R, V98E, V99F
light 2: not shown
notes: 6 is full length
B4: K2AC55 (bispecific antibody, human IgG1, kappa, lambda)
heavy: not shown
light 1: B1 light 1 with R96S, Q97A, V99F
light 2: not shown
notes: 6 is full length
B5: K2AC53 (bispecific antibody, human IgG1, kappa, lambda)
heavy: not shown
light 1: B1 light 1 with T95G, Q97A, V99F
light 2: not shown
notes: 6 is full length
B6: AC58 (antibody, human IgG1, lambda, V domains shown)
VH: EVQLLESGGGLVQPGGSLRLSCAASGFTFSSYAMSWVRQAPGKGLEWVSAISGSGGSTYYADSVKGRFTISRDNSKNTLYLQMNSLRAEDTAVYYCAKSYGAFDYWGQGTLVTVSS
VL: QSVLTQPPSVSGAPGQRVTISCTGSSSNIGVAHDVHWYQQLPGTAPKLLIYDYSERPSGVPDRFSGSKSGTSASLAITGLQAEDEADYYCQSWDNGPNGLVWVFGGGTKLTVLG
notes: Bivalent IgG1 mAb derived from AC21 by lead optimization; 6 carries the IgG1 Fc)
B7: AC59 (antibody, human IgG1, lambda, V domains shown)
VH: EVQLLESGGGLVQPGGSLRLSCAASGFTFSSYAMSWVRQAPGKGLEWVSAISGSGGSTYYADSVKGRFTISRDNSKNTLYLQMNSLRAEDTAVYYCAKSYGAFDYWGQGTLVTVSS
VL: B6 VL with G96S, P97E, V101I, W102Y
notes: as for B6
B8: AC57 (antibody, human IgG1, lambda, V domains shown)
VH: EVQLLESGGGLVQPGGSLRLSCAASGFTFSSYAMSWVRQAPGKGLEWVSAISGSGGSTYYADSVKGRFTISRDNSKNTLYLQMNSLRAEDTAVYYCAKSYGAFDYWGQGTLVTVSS
VL: QSVLTQPPSVSGAPGQRVTISCTGSSSNIINNSYVHWYQQLPGTAPKLLIYAPSNRPSGVPDRFSGSKSGTSASLAITGLQAEDEADYYCQSYDTRFVVPTPVFGGGTKLTVLG
notes: Bivalent IgG1 mAb; 6 carries the IgG1 Fc
B9: K2AC41 (bispecific antibody, human IgG1, kappa, lambda)
heavy: not shown
light 1: DIQMTQSPSSLSASVGDRVTITCQASQEIAATLNWYQQKPGKAPKLLIYNYSTLETGVPSRFSGSGSGTDFTFTISSLQPEDIATYYCQQVGLNPENTTFGGGTKLTVLGQPKAAPSVTLFPPSSEELQANKATLVCLISDFYPGAVTVAWKADSSPVKAGVETTTPSKQSNNKYAASSYLSLTPEQWKSHRSYSCQVTHEGSTVEKTVAPTECS
light 2: not shown
notes: 6 is full length; CEACAM arm light chain hybrid (VK + lambda CL), CD47 arm (K2) fully kappa
B10: K2AC42 (bispecific antibody, human IgG1, kappa, lambda)
heavy: not shown
light 1: B9 light 1 with E28R, A31R, Y51F, T53A, N94D, E96N, N97L
light 2: not shown
notes: 6 is full length; CEACAM arm light chain hybrid, CD47 arm fully kappa
B11: K2AC43 (bispecific antibody, human IgG1, kappa, lambda)
heavy: not shown
light 1: B9 light 1 with E28N, A30P, A31R, L33I, N50D, Y51I, T53N, N97L
light 2: not shown
notes: as for B10
B12: AC41K2 H-CL1 (bispecific antibody, human IgG1, kappa, lambda)
heavy: not shown
light 1: not shown
light 2: DIQMTQSPSSLSASVGDRVTITCRASQSISSYLNWYQQKPGKAPKLLIYAASSLQSGVPSRFSGSGSGTDFTLTISSLQPEDFATYYCQQMHPRAPKTFGGGTKLTVLGQPKAAPSVTLFPPSSEELQANKATLVCLISDFYPGAVTVAWKADSSPVKAGVETTTPSKQSNNKYAASSYLSLTPEQWKSHRSYSCQVTHEGSTVEKTVAPTECS
notes: CEACAM5xCD47 κλ body, IgG1, common heavy chain
B13: AC43K2 H-CL1 (bispecific antibody, human IgG1, kappa, lambda)
heavy: not shown
light 1: not shown
light 2: B12 light 2
notes: CEACAM5xCD47 κλ body, IgG1, common heavy chain; CEACAM arm light chain fully kappa, CD47 arm light chain hybrid

The binders below were run against T1, human CEACAM5 expressed on MKN-45 wt … (assay: cell-based or functional assay).

Row | EC50 (µg/mL) of phagocytosis [µg/mL] | Binder
1 | 0.3 | B1
2 | 5 | B2
3 | 1 | B3
4 | 0.9 | B4
5 | 0.8 | B5

These binders were tested against T2, biotinylated recombinant human CEACAM5 (assay: ELISA; biotinylated recombinant protein on streptavidin plate; bivalent mAb titrated).

Row | EC50 [nM] | Binder
6 | 0.04 | B6
7 | 0.05 | B7
8 | 0.01 | B8

These binders were tested against T3, recombinant cynomolgus monkey CEACAM5 (cynomolgus monkey (macaca fascicularis)) in the same assay as above.
T3 construct: also called cyno CEACAM5; cynomolgus CEACAM5

Row | EC50 [nM] | Binder
9 | 0.04 | B6
10 | 0.05 | B7
11 | 0.02 | B8

Each binder was assayed against T4, human CD47 expressed at the surface of MKN45 cells (human, UniProt Q08722 19-323) (assay: inhibition of SIRPα mouseFc binding to CD47 on MKN45 cells; imaging (CX5)).
T4 construct: whole, on cells; also called IAP
T4 sequence (Q08722 19-323): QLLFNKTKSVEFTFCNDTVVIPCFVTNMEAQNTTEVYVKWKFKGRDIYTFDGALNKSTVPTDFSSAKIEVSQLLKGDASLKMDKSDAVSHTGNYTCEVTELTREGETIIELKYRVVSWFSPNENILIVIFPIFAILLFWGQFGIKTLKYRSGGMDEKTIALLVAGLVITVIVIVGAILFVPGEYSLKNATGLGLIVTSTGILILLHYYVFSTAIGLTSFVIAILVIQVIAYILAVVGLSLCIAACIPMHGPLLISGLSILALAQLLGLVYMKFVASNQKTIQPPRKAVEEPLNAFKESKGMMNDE

Row | IC50 [nM] | Binder
12 | 0.16 | B1
13 | 2.8 | B2
14 | 1.1 | B3
15 | 1.6 | B4
16 | 0.3 | B5
17 | 3.7 | B9
18 | 2.9 | B10
19 | 3.9 | B11
20 | 6.8 | B12
21 | 3.2 | B13

The binders below were run against T1, human CEACAM5 expressed on MKN-45 wt … (assay: flow cytometry on MKN-45 wt cells (express CEACAM5 and CD47)).

Row | EC50 [nM] | Emax (MFI) | Binder
22 | 19 | 2.75e+06 | B1
23 | 47 | 1.59e+06 | B2
24 | 219 | 3.3e+06 | B3
25 | 221 | 3.9e+06 | B4
26 | 38 | 2.63e+06 | B5
27 | 145 | 1.41e+06 | B9
28 | 123 | 1.52e+06 | B10
29 | 135 | 1.77e+06 | B11
30 | 146 | 1.52e+06 | B12
31 | 121 | 2.08e+06 | B13
